From patent publication US20240239890A1 (Chugai, published 2024)

T1: Human RNF43 ECD with Fc region fused on its C-terminus (human)
T1 construct: also called RNF43-Fc
T1 chain: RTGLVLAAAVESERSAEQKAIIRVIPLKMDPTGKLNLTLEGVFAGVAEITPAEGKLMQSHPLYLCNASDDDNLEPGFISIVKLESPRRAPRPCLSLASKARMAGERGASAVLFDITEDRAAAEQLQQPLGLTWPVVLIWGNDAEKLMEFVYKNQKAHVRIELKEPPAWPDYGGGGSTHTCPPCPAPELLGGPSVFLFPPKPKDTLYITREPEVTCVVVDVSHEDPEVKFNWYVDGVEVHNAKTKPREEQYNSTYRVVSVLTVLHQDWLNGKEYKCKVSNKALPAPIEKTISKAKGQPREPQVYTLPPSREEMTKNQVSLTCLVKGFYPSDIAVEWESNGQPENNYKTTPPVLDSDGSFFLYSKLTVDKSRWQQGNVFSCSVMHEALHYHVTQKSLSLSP


Assays:
[1] = target: T1, Human RNF43 ECD with Fc region fused on …; assay: competition ELISA on coated RNF43-Fc; first antibody unlabelled at 10x its EC50, second (reference) antibody biotinylated RNN0187jj at its EC50
Protocol: (§1) EC50 concentration for the binding of each anti-RNF43 monospecific antibody to RNF43-Fc (described in Example 2) was first determined by ELISA assay, using the biotinylated antibodies. In brief, RNF43-Fc at 5 micro g/mL or 1 micro g/mL was coated on Maxisorp plate (NUNC) at 4 degrees C. overnight. The coated plate was then washed with PBS-T, followed by blocking with Blocking One solution (Nacalai Tesque) for 2 hours at room temperature. Serially diluted, biotinylated anti-RNF43 monospecific antibody was then added and incubated for 1 hour at room temperature. After washing with PBS-T, StAv-HRP (PIERCE) was added and incubated for 1 hour at room temperature. After washing with PBS-T, ABTS Peroxidase substrate (SeraCare Life Sciences) was added and signal intensity was measured using Multiskan™ GO Microplate Spectrophotometer. EC50 concentration for the binding of the anti-RNF43 monospecific antibody to RNF43-Fc was calculated using Non-linear regression 4-parameter fit. The normalized absorbance at 405 nm/570 nm measured when EC50 concentration of anti-RNF43 antibodies was applied is denoted as AO.
(§2) To evaluate binding competition between the anti-RNF43 monospecific antibodies, ELISA assay with similar setting was conducted. RNF43-Fc was first coated in Maxisorp plate overnight. […] After washing with PBS-T, ABTS Peroxidase substrate was added and signal intensity was measured using Multiskan™ GO Microplate Spectrophotometer. The normalized absorbance at 405 nm/570 nm is denoted as A.

[2] = target: T1, Human RNF43 ECD with Fc region fused on …; assay: competition ELISA on coated RNF43-Fc; first antibody unlabelled at 10x its EC50, second (reference) antibody biotinylated RNN0207ii at its EC50
Protocol: as §1, §2

[3] = target: T1, Human RNF43 ECD with Fc region fused on …; assay: competition ELISA on coated RNF43-Fc; first antibody unlabelled at 10x its EC50, second (reference) antibody biotinylated RNN0246jj at its EC50
Protocol: as §1, §2

[4] = target: T1, Human RNF43 ECD with Fc region fused on …; assay: competition ELISA on coated RNF43-Fc; first antibody unlabelled at 10x its EC50, second (reference) antibody biotinylated RNN0242nn at its EC50
Protocol: as §1, §2

[5] = target: T1, Human RNF43 ECD with Fc region fused on …; assay: competition ELISA on coated RNF43-Fc; first antibody unlabelled at 10x its EC50, second (reference) antibody biotinylated RNN0192nn at its EC50
Protocol: as §1, §2

[6] = target: T1, Human RNF43 ECD with Fc region fused on …; assay: competition ELISA on coated RNF43-Fc; first antibody unlabelled at 10x its EC50, second (reference) antibody biotinylated RNN0193jj at its EC50
Protocol: as §1, §2

Binder | binding inhibition (%) [1] | binding inhibition (%) [2] | binding inhibition (%) [3] | binding inhibition (%) [4] | binding inhibition (%) [5] | binding inhibition (%) [6]
RNN0242nn with rabbit constant region (antibody) heavy: QQQLEEYGGDLVQPEGSLTLTCKASGLDFSSSYWMCWVRQAPGKGLEWIACIYTGSSGSTSYASWAKGRFTISKTSSTTVTLQMTSLTAADTATYFCARDYDYTAYAYGIMSLWGPGTLVTVSSGQPKAPSVFPLAPCCGDTPSSTVTLGCLVKGYLPEPVTVTWNSGTLTNGVRTFPSVRQSSGLYSLSSVVSVTSSSQPVTCNVAHPATNTKVDKTVAPSTCSKPMCPPPELLGGPSVFIFPPKPKDTLMISRTPEVTCVVVDVSQDDPEVQFTWYINNEQVRTARPPLREQQFNSTIRVVSTLPIAHQDWLRGKEFKCKVHNKALPAPIEKTISKARGQPLEPKVYTMGPPREELSSRSVSLTCMINGFYPSDISVEWEKNGKAEDNYKTTPTVLDSDGSYFLYSKLSVPTSEWQRGDVFTCSVMHEALHNHYTQKSISRSPGK light: AEIVMTQTPSSKSAAVGDTVTIKCQASQSITSYLSWYQQKPGQPPKLLIYRASTLASGVPSRFKGSGSGTQFTLTISDLECADAATYYCQSNYGSYSTNYGVTFGGGTKVEIKRDPVAPTVLIFPPAADQVATGTVTIVCVANKYFPDVTVTWEVDGTTQTTGIENSKTPQNSADCTYNLSSTLTLTSTQYNSHKEYTCKVTQGTTSVVQSFNRGDC | 11.4% | 1.62% | 74.7% | 86.8% | 9.66% | 12.6%
RNN0246jj with rabbit constant region (antibody) heavy: QSVEESGGRLVTPDETLTLTCTVSGFSLNNYHMIWVRQAPGEGLEYIGFINTGGSAYYANWAKGRFTISKTSTTVDLKITSPTTEDTATYFCASVSWRTDYSFELWGPGTLVTVSSGQPKAPSVFPLAPCCGDTPSSTVTLGCLVKGYLPEPVTVTWNSGTLTNGVRTFPSVRQSSGLYSLSSVVSVTSSSQPVTCNVAHPATNTKVDKTVAPSTCSKPMCPPPELLGGPSVFIFPPKPKDTLMISRTPEVTCVVVDVSQDDPEVQFTWYINNEQVRTARPPLREQQFNSTIRVVSTLPIAHQDWLRGKEFKCKVHNKALPAPIEKTISKARGQPLEPKVYTMGPPREELSSRSVSLTCMINGFYPSDISVEWEKNGKAEDNYKTTPTVLDSDGSYFLYSKLSVPTSEWQRGDVFTCSVMHEALHNHYTQKSISRSPGK light: AQVLTQTPSPVSAAVGGTVTISCQASQSVYANNRLAWFQQKPGQPPKLLIYSASTLASGVPSRFKGSGSGTQFTLTISGVQCDDAATYYCAGAYTGNIYTFGGGTKVEIKRDPVAPTVLIFPPAADQVATGTVTIVCVANKYFPDVTVTWEVDGTTQTTGIENSKTPQNSADCTYNLSSTLTLTSTQYNSHKEYTCKVTQGTTSVVQSFNRGDC | 12.6% | -0.14% | 29.8% | 22.6% | -0.13% | 1.17%
RNN0193jj with rabbit constant region (antibody) heavy: QSLEESGGDLVKPGASLTLTCTASGFSFSNNYWICWVRQAPGKGPEWIACIYTGDGDTDYASWAKGRFTISKTSSTTVTLQMTSLTAADTATYFCAREAGTVDGVWNYVFNLWGPGTLVTVSSGQPKAPSVFPLAPCCGDTPSSTVTLGCLVKGYLPEPVTVTWNSGTLTNGVRTFPSVRQSSGLYSLSSVVSVTSSSQPVTCNVAHPATNTKVDKTVAPSTCSKPMCPPPELLGGPSVFIFPPKPKDTLMISRTPEVTCVVVDVSQDDPEVQFTWYINNEQVRTARPPLREQQFNSTIRVVSTLPIAHQDWLRGKEFKCKVHNKALPAPIEKTISKARGQPLEPKVYTMGPPREELSSRSVSLTCMINGFYPSDISVEWEKNGKAEDNYKTTPTVLDSDGSYFLYSKLSVPTSEWQRGDVFTCSVMHEALHNHYTQKSISRSPGK light: AQVLTQTPSPVSAAVGGTVTISCQSSQSVYNDNLAWFQQKPGQPPKLLIYDASTLASGVPSRFKGSGSGTQFTLTISKLQCDDAATYYCQGVYIGHIFTFGGGTKVEIKRDPVAPTVLIFPPAADQVATGTVTIVCVANKYFPDVTVTWEVDGTTQTTGIENSKTPQNSADCTYNLSSTLTLTSTQYNSHKEYTCKVTQGTTSVVQSFNRGDC | 3.21% | -1.42% | 5.04% | 21.3% | -15.2% | 50.2%
